Here are results for one substance from patent US20120258099A1.

The experiment concerns the target RhoA in NIH3T3 cells (UniProt Q9QUI0). Description: cell-based or functional assay.

RhoA in NIH3T3 cells, sequence (Q9QUI0 1-190 limits assumed): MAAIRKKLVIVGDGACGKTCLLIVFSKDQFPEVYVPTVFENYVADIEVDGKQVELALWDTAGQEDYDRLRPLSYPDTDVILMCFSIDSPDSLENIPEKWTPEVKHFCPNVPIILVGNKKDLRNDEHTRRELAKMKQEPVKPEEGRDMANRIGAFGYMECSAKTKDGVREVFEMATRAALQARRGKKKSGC

As to “GFP-Tgat (from UniProt P42212 1-238; O75962 1862-2101) (enzyme)”, the RhoA activation in intact cells, pull-down of RhoA-GTP with GST-RBD (fold over control) was 8.
